We go through 7 molecules from US20240117030A1 (Pfizer, published 2024).

Where two headings read alike, the source gives them in different places.

Holding throughout (experiment): cell-based or functional assay
The target of experiment [1] is T1, human IL-13 (human, UniProt P35225 35-146).
Experiment [2] deals with T1, human IL-13. The source holds these as a separate data set.
For experiment [3], the target named is recombinant human IL-13 (human, UniProt P35225 35-146).
For the next experiment, the target named is T2, human IL-33 mm2 Cys (human, UniProt O95760 112-270, limits assumed).
T2 sequence (looked up): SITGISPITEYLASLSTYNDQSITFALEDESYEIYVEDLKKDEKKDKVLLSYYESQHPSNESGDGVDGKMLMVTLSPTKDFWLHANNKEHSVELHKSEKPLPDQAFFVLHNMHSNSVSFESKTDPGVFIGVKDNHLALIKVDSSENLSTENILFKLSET

For experiment [4], the target named is T3, recombinant human IL-33 (R&D Systems 3625-IL), reduced with DTT (human, UniProt O95760 112-270, limits assumed).
T3 sequence (looked up): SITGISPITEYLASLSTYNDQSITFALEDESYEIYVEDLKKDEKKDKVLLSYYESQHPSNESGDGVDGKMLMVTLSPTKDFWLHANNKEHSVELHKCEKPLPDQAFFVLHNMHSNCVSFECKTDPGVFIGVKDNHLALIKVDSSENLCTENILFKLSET

For experiment [5], the target named is T4, recombinant human IL-4 (human, UniProt P05112 25-153).
T4 sequence (looked up): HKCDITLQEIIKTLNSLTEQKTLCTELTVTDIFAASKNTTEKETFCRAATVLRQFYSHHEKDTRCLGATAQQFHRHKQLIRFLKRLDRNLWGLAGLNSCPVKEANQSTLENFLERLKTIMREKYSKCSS

The target in experiment [6] is T5, recombinant human IL-4 (human, UniProt P05112 25-153).
T5 sequence (looked up): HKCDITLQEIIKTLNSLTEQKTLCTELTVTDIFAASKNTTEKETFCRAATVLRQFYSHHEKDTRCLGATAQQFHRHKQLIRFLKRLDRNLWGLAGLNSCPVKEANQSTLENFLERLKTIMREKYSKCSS
This is another data set of the same source.

Experiment [7] concerns the target recombinant human IL-13 (human, UniProt P35225 35-146). This is another data set of the same source.

T1 sequence (P35225 35-146 limits assumed, form in doubt): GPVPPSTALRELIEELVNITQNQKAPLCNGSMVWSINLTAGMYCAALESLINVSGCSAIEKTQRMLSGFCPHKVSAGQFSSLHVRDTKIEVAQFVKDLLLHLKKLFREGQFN

B1: IL13-1307 (antibody, IgG1, V domains shown)
VH: EVQLVESGGGLVQPGGSLRLSCAASGFTFSSYAMSWVRQAPGKGLEWVASISSGDTTYYPDSVKGRFTISRDNAKNSLYLQMNSLRAEDTAVYYCARLDGYYFGFPYWGQGTLVTVSS
VL: DIQMTQSPSSLSASVGDRVTITCKASESVDHSGSSLMHWYQQKPGKAPKLLIYRASNLESGVPSRFSGSGSGTDFTLTISSLQPEDFATYYCQQSNEDPWTFGGGTKVEIK
B1: in the experiment with human IL-13 [1], the “CD23: Fold bioactivity relative to IL13-0001” value is 0.03 fold, the “CD23: Fold bioactivity relative to IL13-1307” value stood at 1 fold, the “CD23 IC50 [pM]” value was determined as 306 pM and the “pSTAT6: Fold bioactivity relative to IL13-0001” value came out at 0.7 fold. In the experiment with human IL-13 [1], the “pSTAT6: Fold bioactivity relative to IL13-1307” value was 1 fold and the “pSTAT6 IC50 [pM]” value is 140 pM. In the experiment with human IL-13 [2], the “CD23 IC50 [pM]” value turned out to be 214 pM and the “pSTAT6 IC50 [pM]” value came to 225 pM.

B2: IL13-0001 (antibody, human IgG1, kappa, V domains shown)
VH: EVQLVESGGGLVQPGGSLRLSCAASGFTFSSYAMSWVRQAPGKGLEWVASISSGDTTYYPDSVKGRFTISRDNAKNSLYLQMNSLRAEDTAVYYCARNEGYYFGLTLWGQGTLVTVSS
VL: DIQMTQSPSSLSASVGDRVTITCKASESVDHFGWSLVHWYQQKPGKAPKLLIYRASNLESGVPSRFSGSGSGTDFTLTISSLQPEDFATYYCQQSNEDPWTFGGGTKVEIKR
Take B2: in the experiment with recombinant human IL-13 [3], the “a-hIL-13 bioassay (IC50, pM)” value came to 4.83 pM.

B3: IL33-0216 (antibody, human IgG1, kappa, V domains shown)
VH: EVQLVESGGGLVQPGGSLRLSCAASGFTFSSYWMYWVRQAPGKGLEWVAAITPNAGEDYYPESVKGRFTISRDNAKNSLYLQMNSLRAEDTAVYYCARGHYYYTSYSLGYWGQGTLVTVSS
VL: DIQMTQSPSSLSASVGDRVTITCKASQNIDKHLDWYQQKPGKAPKLLIYFTNNLQTGVPSRFSGSGSGTDFTLTISSLQPEDFATYYCFQYNQGWTFGGGTKVEIKR
B3: the “IC50 [pM] versus human IL-33 mm2 Cys (HEK-Blue SEAP)” value with human IL-33 mm2 Cys turned out to be 237 pM. Moreover, in experiment [4], the “IC50 [pM] versus human reduced IL-33 (R&D), Experiment 1 (HEK-Blue SEAP)” value was approximately 677 pM and the “IC50 [pM] versus human reduced IL-33 (R&D), Experiment 2 (HEK-Blue SEAP)” value is approximately 1240 pM.

B4: IL13-1306 (antibody, mouse IgG1, V domains shown)
VH: EVKLVESGGDLVKPGGSLKLSCAASGFTFSSYAMSWVRQSPDKRLEWVASISSGDTTYYPDSVKGRFTISRDNARNILYLQMTSLRSEDTAMYYCARLDGYYFGFPYWGQGTLVTVSA
VL: DTVLTQSPASLAVSLGQRATISCKASESVDHSGSSLMHWYQQKPGQSPKLLIYRASNLESGIPARFSGSGSRTDFTLTINPVEADDVATYYCQQSNEDPWTFGGGTKLEIK
Regarding B4, the “pSTAT6 IC50 [pM]” value with human IL-13 [2] was 290 pM.

B5: IL4-0002 (antibody, human IgG1, kappa)
heavy: EVTLRESGPALVKPTQTLTLTCTFSGFSLSNFGEGLSWIRQPPGKGLEWLAHIYWDDDKRYNPSLKSRLTISKDTSRNQVVLTMTNMDPVDTATYYCARRETVFYWYFDVWGQGTTVTVSSASTKGPSVFPLAPSSKSTSGGTAALGCLVKDYFPEPVTVSWNSGALTSGVHTFPAVLQSSGLYSLSSVVTVPSSSLGTQTYICNVNHKPSNTKVDKKVEPKSCDKTHTCPPCPAPEAAGAPSVFLFPPKPKDTLMISRTPEVTCVVVDVSHEDPEVKFNWYVDGVEVHNAKTKPREEQYNSTYRVVSVLTVLHQDWLNGKEYKCKVSNKALPAPIEKTISKAKGQPREPQVYTLPPSREEMTKNQVSLTCLVKGFYPSDIAVEWESNGQPENNYKTTPPVLDSDGSFFLYSKLTVDKSRWQQGNVFSCSVMHEALHNHYTQKSLSLSPGK
light: DIQMTQSPSSLSASVGDRVTITCKASQSVDEDGDSYMNWYQQKPGKAPKLLIYAASNLESGVPSRFSGSGSGTDFTLTISSLQPEDFATYYCQQSNEDPPTFGGGTKVEIKRTVAAPSVFIFPPSDEQLKSGTASVVCLLNNFYPREAKVQWKVDNALQSGNSQESVTEQDSKDSTYSLSSTLTLSKADYEKHKVYACEVTHQGLSSPVTKSFNRGEC
Turning to B5, the “a-hIL-4 bioassay IC50, pM)” value with recombinant human IL-4 [5] was 3.42 pM.

B6: IL413TSLP-1028 (other)
heavy: not shown
chain 1: DIQMTQSPSSLSASVGDRVTITCKASESVDHFGWSLVHWYQQKPGKAPKLLIYRASNLESGVPSRFSGSGSGTDFTLTISSLQPEDFATYYCQQSNEDPWTFGGGTKVEIKRTVAAPSVFIFPPSDEQLKSGTASVVCLLNNFYPREAKVQWKVDNALQSGNSQESVTEQDSKDSTYSLSSTLTLSKADYEKHKVYACEVTHQGLSSPVTKSFNRGECGGGGSEVTLRESGPALVKPTQTLTLTCTFSGFSLSNFGEGLSWIRQPPGKGLEWLAHIYWDDDKRYNPSLKSRLTISKDTSRNQVVLTMTNMDPVDTATYYCARRETVFYWYFDVWGQGTTVTVSSASTKGPSVFPLAPSSKSTSGGTAALGCLVKDYFPEPVTVSWNSGALTSGVHTFPAVLQSSGLYSLSSVVTVPSSSLGTQTYICNVNHKPSNTKVDKKVEPKSCEKTHTCPPCPAPEAAGAPSVFLFPPKPKDTLMISRTPEVTCVVVDVSHEDPEVKFNWYVDGVEVHNAKTKPREEQYNSTYRVVSVLTVLHQDWLNGKEYKCKVSNKALPAPIEKTISKAKGQPREPQVYTLPPSREEMTKNQVSLTCEVKGFYPSDIAVEWESNGQPENNYKTTPPVLDSDGSFFLYSKLTVDKSRWQQGNVFSCSVLHEALHSHYTQKSLSLSPGK
light 1: SYVLTQPPSVSVAPGQTARITCGGNNLGSKSVHWYQQKPGQAPVLVVYDDSDRPSWIPERFSGSNSGNTATLTISRGEAGDEADYYCQVWDSSSKHVVFGGGTKLTVLGQPKAAPSVTLFPPSSEELQANKATLVCLISDFYPGAVTVAWKADSSPVKAGVETTTPSKQSNNKYAASSYLSLTPEQWKSHRSYSCQVTHEGSTVEKTVAPTECS
light 2: DIQMTQSPSSLSASVGDRVTITCRASQSVDEEGDSYMNWYQQKPGKAPKLLIYAASNLESGVPSRFSGSGSGTDFTLTISSLQPEDFATYYCQQSNKDPPTFGGGTKVEIKRTVAAPSVFIFPPSDEQLKSGTASVVCLLNNFYPREAKVQWKVDNALQSGNSQESVTEQDSKDSTYSLSSTLTLSKADYEKHKVYACEVTHQGLSSPVTKSFNRGEC
chain 2: EVQLVESGGGLVQPGGSLRLSCAASGFTFSSYAMSWVRQAPGKGLEWVASISSGDTTYYPDSVKGRFTISRDNAKNSLYLQMNSLRAEDTAVYYCARNEGYYFGLTLWGQGTLVTVSSASTKGPSVFPLAPSSKSTSGGTAALGCLVKDYFPEPVTVSWNSGALTSGVHTFPAVLQSSGLYSLSSVVTVPSSSLGTQTYICNVNHKPSNTKVDKKVEPKSC
For the molecule B6, the “IC50 (median), IL-4 induced CD23 expression on human monocytes” value in the experiment with recombinant human IL-4 [6] stood at 12.8 pM. In addition, in the experiment with recombinant human IL-13 [7], the “IC50 (median), IL-13 induced CD23 expression on human monocytes” value turned out to be 12.9 pM.

B7: IL413TSLP-1037 (other)
heavy: not shown
chain 1: DIQMTQSPSSLSASVGDRVTITCKASESVDHFGWSLVHWYQQKPGKAPKLLIYRASNLESGVPSRFSGSGSGTDFTLTISSLQPEDFATYYCQQSNEDPWTFGGGTKVEIKRTVAAPSVFIFPPSDEQLKSGTASVVCLLNNFYPREAKVQWKVDNALQSGNSQESVTEQDSKDSTYSLSSTLTLSKADYEKHKVYACEVTHQGLSSPVTKSFNRGECGGGGSEVTLRESGPALVKPTQTLTLTCTFSGFSLSNFGEGLSWIRQPPGKGLEWLAHIYWDDDKRYNPSLKSRLTISKDTSRNQVVLTMTNMDPVDTATYYCARRETVFYWYFDVWGQGTTVTVSSASTKGPSVFPLAPSSKSTSGGTAALGCLVKDYFPEPVTVSWNSGALTSGVHTFPAVLQSSGLYSLSSVVTVPSSSLGTQTYICNVNHKPSNTKVDKKVEPKSCEKTHTCPPCPAPEAAGAPSVFLFPPKPKDTLMISRTPEVTCVVVDVSHEDPEVKFNWYVDGVEVHNAKTKPREEQYNSTYRVVSVLTVLHQDWLNGKEYKCKVSNKALPAPIEKTISKAKGQPREPQVYTLPPSREEMTKNQVSLTCEVKGFYPSDIAVEWESNGQPENNYKTTPPVLDSDGSFFLYSKLTVDKSRWQQGNVFSCSVLHEALHSHYTQKSLSLSPGK
light 1: SYVLTQPPSVSVAPGQTARITCGGNNLGSKSVHWYQQKPGQAPVLVVYDDKDRPSWIPERFSGSNSGNTATLTISRGEAGDEADYYCQVWDKSSDHVVFGGGTKLTVLGQPKAAPSVTLFPPSSEELQANKATLVCLISDFYPGAVTVAWKADSSPVKAGVETTTPSKQSNNKYAASSYLSLTPEQWKSHRSYSCQVTHEGSTVEKTVAPTECS
light 2: DIQMTQSPSSLSASVGDRVTITCRASQSVDEEGDSYMNWYQQKPGKAPKLLIYAASNLESGVPSRFSGSGSGTDFTLTISSLQPEDFATYYCQQSNKDPPTFGGGTKVEIKRTVAAPSVFIFPPSDEQLKSGTASVVCLLNNFYPREAKVQWKVDNALQSGNSQESVTEQDSKDSTYSLSSTLTLSKADYEKHKVYACEVTHQGLSSPVTKSFNRGEC
chain 2: EVQLVESGGGLVQPGGSLRLSCAASGFTFSSYAMSWVRQAPGKGLEWVASISSGDTTYYPDSVKGRFTISRDNAKNSLYLQMNSLRAEDTAVYYCARNEGYYFGLTLWGQGTLVTVSSASTKGPSVFPLAPSSKSTSGGTAALGCLVKDYFPEPVTVSWNSGALTSGVHTFPAVLQSSGLYSLSSVVTVPSSSLGTQTYICNVNHKPSNTKVDKKVEPKSC
B7: the “IC50 (median), IL-4 induced CD23 expression on human monocytes” value in the experiment with recombinant human IL-4 [6] was found to be 10.5 pM. Moreover, in the experiment with recombinant human IL-13 [7], the “IC50 (median), IL-13 induced CD23 expression on human monocytes” value turned out to be 13.1 pM.
